From the supplement of paper PMC10567573

B1: CFHR2 (parent)
chain: FVENGHSESSGQTHLEGDTVQIIC
B2: TRAF3IP2 (parent)
chain: KQGSMNFRFIPVLFPNAKKEHVPT

Variants of: B1
Experiment: protein stability index of a GFP-peptide fusion (GPS, HEK-293T) (PSI 1-6); higher = more stable
Details: c terminus: a fixed tail appended
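Note: lentivirally expressed fusions sorted by FACS into six bins by GFP to DsRed ratio, PSI derived from sequencing read proportions per bin multiplied by bin number.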

Protein stability index, by site and new letter:
H6: Q 2.37, D 3.87, A 3.02, E 3.65, Y 1.93, K 3.33, M 2.32, S 2.92, T 2.79, N 3.52, C 2.28, R 2.85, G 3.12, W 2.7, I 2.57, P 3.18, F 2.29, L 2.19, V 2.74
N4: K 3.03, H 2.62, S 2.4, L 1.76, R 2.05, W 2.8, Q 2.81, I 2.13, E 3.47, D 3.92, Y 2.37, V 2.18, A 2.42, T 2.51, F 1.83, P 2.53, C 1.98, G 2.59, M 1.8
G11: A 2.56
S10: C 2, T 2.73, P 3.49, I 1.56, E 3.33, G 2.87, D 3.51, Q 2.77, A 2.65, L 2.31, F 1.97, V 1.75, R 2.59, N 2.99, Y 1.94, H 2.34, K 2.65, M 2.08
S9: I 2.2, Q 3.14, H 2.77, A 2.5, N 2.76, L 1.99, C 2.02, R 2.14, K 2.76, Y 1.66, D 3.23, T 2.78, M 2.32, G 2.7, F 2.19, P 2.75, V 2.15, E 3.22
S7: L 3.1, G 2.63, D 3.09, W 4.33, N 3.14, I 2.42, M 2.19, C 2.34, R 2.29, A 2.72, Y 1.64, F 1.43, Q 3.04, E 3.87, V 2.39, T 3.24, H 2.75, K 2.84, P 3.12
G5: E 4.09, A 2.77, L 2.77, R 1.82, V 2.87, P 2.27, C 2.03, F 2.55, H 2.49, D 3.64, S 3.01, Y 3.09, K 2.64, W 3.48, T 2.97, I 2.2, M 2.28, Q 2.57, N 3.23
V2: S 4.18, M 3.12, Y 3.44, T 3.94, N 4.16, G 3.62, H 3.82, P 3.88, F 3.62, L 3.59, R 3.96, D 4.19, E 4.54, C 4, A 4, Q 3.81, W 3.35, K 4.01, I 3.72
F1: W 3.86, R 3.83, Y 2.69, L 3.89, V 3.92, Q 4.37, C 3.73, E 4.95, M 4.23, A 4.27, D 4.7, P 4.61, I 4, S 4.14, G 4.33, T 3.96, K 4.2, H 4.43, N 4.1
E3: N 1.92, Q 1.83, R 1.67, V 1.54, A 2.11, G 2.83, F 2.04, S 2.12, T 2.23, W 1.56, I 1.94, D 1.74, L 1.81, C 1.38, K 1.78, P 2.38, Y 1.98, M 1.5, H 2.08
E8: Q 2.15, R 2.28, F 1.64, N 2.18, G 2.22, A 2.15, W 3.2, V 2.45, D 2.75, S 2.32, K 1.97, H 2.08, C 1.82, T 2.16, L 1.81, I 1.57, P 2.51, Y 2.29, M 1.57

Variants of: B2
Experiment: as above
Details: c terminus: a fixed tail appended

Protein stability index of substitutions, site by site:
T24: M 1.87, R 2.33, Q 1.92, K 2.19, H 1.89, W 2.06, D 2.16, E 2.35, C 1.94, S 1.65, P 2.14, G 2.14, F 1.75, I 1.7, A 2.25, Y 2.5, L 1.67, V 1.76, N 1.97
P23: V 1.4, W 2.58, H 1.83, Y 1.84, L 2.16, R 2.05, G 2.15, C 1.96, E 2.19, A 1.82, K 2, D 2.29, M 1.78, Q 1.69, I 1.77, F 1.79, N 1.86, T 2.27, S 1.88
E20: K 1.68, C 1.85, L 1.67, H 2.03, A 2.11, D 2.33, M 2.3, V 2.26, W 1.9, R 1.65, Y 1.77, T 2.05, P 2.12, N 2.15, S 1.73, G 2.24, Q 2.02, I 2.19, F 1.93
A17: V 1.61, N 2, S 2.21, R 2, T 2.86, M 2.08, P 2.07, Q 2.38, W 1.74, L 1.89, Y 1.72, K 1.82
K18: L 1.61, T 1.85, Q 1.77, Y 1.84, V 1.65, D 2.34, H 1.89, A 1.76, G 2.04, E 2.15, W 1.65, P 1.77, R 1.6, F 1.77, I 2.27, C 1.71, M 1.76, N 1.93, S 1.71
V22: W 1.6, A 2.22, F 2.16, M 2.24, E 2.19, I 2.11, G 2.4, T 2.38, D 2.89, Y 1.91, Q 1.96, R 1.99, K 2.61, N 2.23, H 1.73, L 2.09, S 3, C 2, P 1.82
H21: L 2.23, G 2.3, N 2.21, K 1.77, M 2.13, S 2.07, I 1.59, T 2.15, D 2.06, V 1.94, C 2.02, Y 1.82, P 2.14, E 2.47, Q 1.78, A 2.19, R 1.72, F 1.66, W 1.81
K19: E 1.99, F 1.98, H 2.34, V 1.65, T 1.75, N 1.7, M 1.59, P 1.6, D 2.13, G 1.95, C 1.7, Q 1.84, R 1.59, W 1.65, L 1.78, I 1.59, Y 1.99, S 1.98, A 1.66
